Measurements: PMC8928434, “Production of Putrescine and Cadaverine by Paucilactobacillus wasatchensis” (Frontiers in Microbiology, 2022)

What was measured:
Odc2_C19 (Odc2) = conditions: 50 mM phosphate pH 5.5, 50 μM pyridoxal 5'-phosphate, 37°C; substrate 1-50 mM
Excerpt: HPLC of o-phthalaldehyde-derivatized amine product (decarboxylation), Michaelis-Menten fit on Odc2_C19 (Odc2)

[1] = substrate: NCCCC[C@H](N)C(=O)O; assay: HPLC of o-phthalaldehyde-derivatized amine product (decarboxylation), Michaelis-Menten fit; assay type: biochemical, Paucilactobacillus wasatchensis; conditions: 50 mM phosphate pH 5.5, 50 μM pyridoxal 5'-phosphate, 37°C, substrate 1-50 mM
Excerpt: HPLC of o-phthalaldehyde-derivatized amine product (decarboxylation), Michaelis-Menten fit on Odc1_Lw35 (Odc1)

| Molecule | Km (Odc2_C19 (Odc2)) [mM] | Km [1] [mM] | kcat [1] [s⁻¹] |
| --- | --- | --- | --- |
| NCCCC[C@H](N)C(=O)O [L-Lysine] | 20.2 | – | – |
| Odc1_Lw35 (Odc1) (Paucilactobacillus wasatchensis) (protein, full length (native 726 aa), C-terminal His-tag (pEG-His1, BamHI/SalI), E. coli BL21(DE3), Ni-TED purified) MKLLGIACSEEAQKYFKTTRDIIDAEKDSDFTDVAAIVLTEDDLDLINKIDETHFDIPVFLITNDAAKIDKDLRAKIYHLIDDDAKYTNMYDGEIEAAAVEYEKKMMPPFFEELQKYADEGNLSFTTPGHHAGKFFMRHPAGRWLVNYYGENLFRSDLSSSDVAVGDLLTHGGAPLSAEQHAAKVFNADKTYFVMNGTSTSNAIVTSAAVAPGDLVLFDRNNHKSSYISALENAGGIPIYLQTERNPFGFIGGISDAVFNEKHIRELIAKVDPKRAKEKRPIRLAIIELGTYDGSIYDARQVVDRIGSLCDYIQFDSAWVGYEQFIPMMKPSSPLLLDLGPEDPGILVTQSVHKQQAALSQGSQIHKKDKHIKGQKRYITHKRFNNAYMKYTSTSPFYPMYASLDVNAYLMEGKAGAEMWKNTVKLGIEARKRMLNESKLFTPFIPTVVNGKKWEDGDTEEMADNLDFWRFKKGESWHSFEGYADNQYYIDPLKVMFKTPGINMETGEYEDFGIPATILASYLREHGIVPEKSDLNSILFLLTPAETKTKLDNLVNLILRFEDLIEKDEKLENVLPHVYADNASRYRGYTIRQLCQEMHNFYKQSNAKKFQKELFQEATLPEQAMTPYAADKELIRNNAELIPLQDIVGRVALEGGLPYPPGIFVIAPGERWTESAQKYFLILQDGINQFPGFSPEIQGVYNEPQADGKVKAYGYVLDDESVIKKN | – | 16.0 ± 1.8 | 3 ± 0.1 |
